Laboratory results: publication doi:10.1101/2025.09.08.674988

Tests used:
[1] = target: FlAsH-labeled NS5B(Δ21)-FlAsH-His (Hepatitis C virus genotype 2a); test: FRAP on a supported lipid bilayer
[2] = target: FlAsH-labeled NS5B(Δ21)-FlAsH-His (Hepatitis C virus genotype 2a); test: fluorescence polarisation
[3] = target: FlAsH-labeled NS5B(Δ21)-FlAsH-His (Hepatitis C virus genotype 2a); test: fluorescence polarisation; remark: listed apart in the source
[4] = target: FlAsH-labeled NS5B(Δ21)-FlAsH-His (Hepatitis C virus genotype 2a); test: fluorescence polarisation; remark: listed apart in the source
[5] = target: NS5B(Δ21)-FlAsH-His (Hepatitis C virus genotype 2a); test: dynamic light scattering
[6] = dynamic light scattering; settings: other: dynamic light scattering

In the case of “FlAsH-labeled NS5B(Δ21)-FlAsH-His (enzyme)”, the Kd [1] is reported as under 10 nM.

NS5B(Δ21)-FlAsH-His (enzyme) showed a Kd [2] of 1000 nM, a Kd [3] of 1100 nM and a Kd [4] of 560 nM. For the same substance, the Kd [5] was 750 nM.

In the case of NS5B(Δ21)-FlAsH-His, the K0.5 [6] is reported as “K0.5 ∼ 1.5 µM”.
